From US20140090111A1, “Plant Hormone Biosensors” (Carnegie Institution of Washington, priority 2012, published 2014) come the findings set out here.

The nature of this experiment: FRET fluorescence emission response of GA biosensors to GA. To be noted: FIG. 9. The experiment is classed as binding. The source says:
FIG. 9 depicts the fluorescence emission curves of a GA biosensor in response to GA. Also depicted are the GA responses of biosensor mutant variants. A: GA response of SMSX39L10.DR43 (RGA2 and GID1C sub-domains, L10 linker, Venus and Cerulean fluorescent proteins).
Expression and screening hormone biosensors using Saccharomyces cerevisiae as a eukaryotic host cell to better express the eukaryotic hormone binding domains. S. cerevisiae can be adapted to a high-throughput expression system. A new library of GATEWAY™ destination vectors was created for expression in yeast (Table IV, FIG. 2). Although expression of SMS in S. cerevisiae was successful as determined by fluorescence emissions, purification of sensors from the host cells was not possible because of cleavage of the hormone binding domains of the SMS proteins upon cell lysis, which can be important because the rate of transport of many plant hormones into yeast cells is low. […] SMS proteins were subsequently screened from cell lysates and after purification using metal-affinity chromatography, if the clones included an N-terminal 6HIS tag.
Subsequent experiments identified protocols for yeast cell transformation, culture and lysis, metal-affinity chromatography, and fluorescence analysis after hormone treatment in a 96-well format. Thus, a novel high-throughput platform for creation and screening of SMS had been developed. […]

Substitutions are numbered along the chain they refer to. Numbers in names are those of the source.

B1: GID1C(S114A): GA biosensor mutant variant, mutation of a GA binding residue of GID1C (protein, UniProt Q940G6 2-344, looked up, variant S114A)
Gibberellin receptor GID1C: AGSEEVNLIESKTVVPLNTWVLISNFKLAYNLLRRPDGTFNRHLAEFLDRKVPANANPVNGVFSFDVIIDRQTNLLSRVYRPADAGTSPSITDLQNPVDGEIVPVIVFFHGGAFAHSSANSAIYDTLCRRLVGLCGAVVVSVNYRRAPENRYPCAYDDGWAVLKWVNSSSWLRSKKDSKVRIFLAGDSSGGNIVHNVAVRAVESRIDVLGNILLNPMFGGTERTESEKRLDGKYFVTVRDRDWYWRAFLPEGEDREHPACSPFGPRSKSLEGLSFPKSLVVVAGLDLIQDWQLKYAEGLKKAGQEVKLLYLEQATIGFYLLPNNNHFHTVMDEIAAFVNAECQ
modifications: within FRET biosensor
B1: the “GA affinity / GA response of biosensor” value is given as “reduced GA affinity”.

B2: GID1C P98A: GA biosensor mutant variant rendering GID interaction with DELLA constitutive; control (protein, UniProt Q940G6 2-344, looked up, variant P98A)
Gibberellin receptor GID1C: B1 Gibberellin receptor GID1C with P97A, A113S
modifications: within FRET biosensor
notes: control
Consider B2, for which the “GA affinity / GA response of biosensor” value is recorded as “GA non-responsive”.
